Measured values published in the supplement of paper PMC10567573.

B1: ZNF8 (parent)
chain: RTHTGEKPYTCSVCGKSFSRTTCL

Variants of: B1
Assay: protein stability index of a GFP-peptide fusion (GPS, HEK-293T) (PSI 1-6); higher = more stable
Details: c terminus: a fixed tail appended
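Also: lentivirally expressed fusions sorted by FACS into six bins by GFP to DsRed ratio, PSI derived from sequencing read proportions per bin multiplied by bin number.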

Protein stability index: each site, then its substitutions
G5: V 2.87 | W 2.74 | Y 2.15
E6: A 2.31 | C 2.28 | D 2.9 | F 2.11 | G 2.26 | H 2.48 | I 2.75 | K 2.53 | L 2.1 | M 2.19 | N 1.96 | P 2.11 | Q 2.06 | R 1.92 | S 1.92 | T 2.08 | V 2.04 | W 2.06 | Y 2.11
K7: A 2.35 | C 2.72 | D 2.17 | E 2.36 | F 2.5 | G 3.25 | H 2.93 | I 2.15 | L 2.72 | M 2.29 | N 2.42 | P 2.96 | Q 2.08 | R 2.49 | S 2.47 | T 2.49 | V 2.44 | W 2.31 | Y 2.36
P8: A 3.27 | C 2.81 | D 2.78 | E 2.95 | F 2.25 | G 2.9 | H 2.63 | I 3.05 | K 2.04 | L 3.12 | M 2.62 | N 2.93 | Q 3.05 | R 2.46 | S 2.17 | T 2.86 | V 2.59 | W 2.9 | Y 2.95
Y9: A 2.3 | C 3.77 | D 2.78 | E 2.95 | F 2.32 | G 2.5 | H 2.11 | I 2.59 | K 2.08 | L 2.39 | M 2.23 | N 2.51 | P 2.4 | Q 2.31 | R 2.29 | S 2.62 | T 2.59 | V 2.65 | W 2.42
T10: A 2.06 | C 2.83 | D 2.43 | E 2.39 | F 1.89 | G 2.21 | H 2.75 | I 2.65 | K 2.15 | L 2.05 | M 2.19 | N 2.2 | P 2.27 | Q 2.6 | R 2.51 | S 2.36 | V 2.72 | W 1.75 | Y 1.98
C11: A 2.88 | D 2.83 | E 2.48 | F 2.23 | G 2.33 | H 1.99 | I 2.01 | K 2.25 | L 2.43 | M 3.35 | N 2.79 | P 2.56 | Q 3.18 | R 2.39 | S 2.52 | T 2.39 | V 2.24 | W 1.82 | Y 1.86
S12: A 2.96 | C 2.13 | D 2.59 | E 2.72 | F 2.05 | G 2.02 | H 2.41 | I 2.11 | K 2.13 | L 2.22 | M 2.34 | N 2.24 | P 2.7 | Q 2.33 | R 2.21 | T 2.52 | V 2.21 | W 2.17 | Y 2.27
V13: A 2.26 | C 3.54 | D 2.46 | E 2.47 | F 2.48 | G 2 | H 2.61 | I 2.09 | K 2.61 | L 2.23 | M 2.14 | N 2.26 | P 1.97 | Q 1.28 | R 1.99 | S 2.56 | T 1.89 | W 1.65 | Y 2.43
C14: A 2.17 | D 2.77 | E 2.46 | F 2.1 | G 1.99 | H 2.89 | I 2.34 | K 3.06 | L 2.76 | M 2.88 | N 2.87 | P 2.82
